Measured values from PMC10050189, “Alpha 2-macroglobulin acts as a clearance factor in the lysosomal degradation of extracellular misfolded proteins” (Scientific Reports, 2023).

B1: α2M–mCherry–sfGFP–His (natural protein, human (cDNA from HepG2), UniProt P01023 24-1474, looked up)
chain: SVSGKPQYMVLVPSLLHTETTEKGCVLLSYLNETVTVSASLESVRGNRSLFTDLEAENDVLHCVAFAVPKSSSNEEVMFLTVQVKGPTQEFKKRTTVMVKNEDSLVFVQTDKSIYKPGQTVKFRVVSMDENFHPLNELIPLVYIQDPKGNRIAQWQSFQLEGGLKQFSFPLSSEPFQGSYKVVVQKKSGGRTEHPFTVEEFVLPKFEVQVTVPKIITILEEEMNVSVCGLYTYGKPVPGHVTVSICRKYSDASDCHGEDSQAFCEKFSGQLNSHGCFYQQVKTKVFQLKRKEYEMKLHTEAQIQEEGTVVELTGRQSSEITRTITKLSFVKVDSHFRQGIPFFGQVRLVDGKGVPIPNKVIFIRGNEANYYSNATTDEHGLVQFSINTTNVMGTSLTVRVNYKDRSPCYGYQWVSEEHEEAHHTAYLVFSPSKSFVHLEPMSHELPCGHTQTVQAHYILNGGTLLGLKKLSFYYLIMAKGGIVRTGTHGLLVKQEDMKGHFSISIPVKSDIAPVARLLIYAVLPTGDVIGDSAKYDVENCLANKVDLSFSPSQSLPASHAHLRVTAAPQSVCALRAVDQSVLLMKPDAELSASSVYNLLPEKDLTGFPGPLNDQDNEDCINRHNVYINGITYTPVSSTNEKDMYSFLEDMGLKAFTNSKIRKPKMCPQLQQYEMHGPEGLRVGFYESDVMGRGHARLVHVEEPHTETVRKYFPETWIWDLVVVNSAGVAEVGVTVPDTITEWKAGAFCLSEDAGLGISSTASLRAFQPFFVELTMPYSVIRGEAFTLKATVLNYLPKCIRVSVQLEASPAFLAVPVEKEQAPHCICANGRQTVSWAVTPKSLGNVNFTVSAEALESQELCGTEVPSVPEHGRKDTVIKPLLVEPEGLEKETTFNSLLCPSGGEVSEELSLKLPPNVVEESARASVSVLGDILGSAMQNTQNLLQMPYGCGEQNMVLFAPNIYVLDYLNETQQLTPEIKSKAIGYLNTGYQRQLNYKHYDGSYSTFGERYGRNQGNTWLTAFVLKTFAQARAYIFIDEAHITQALIWLSQRQKDNGCFRSSGSLLNNAIKGGVEDEVTLSAYITIALLEIPLTVTHPVVRNALFCLESAWKTAQEGDHGSHVYTKALLAYAFALAGNQDKRKEVLKSLNEEAVKKDNSVHWERPQKPKAPVGHFYEPQAPSAEVEMTSYVLLAYLTAQPAPTSEDLTSATNIVKWITKQQNAQGGFSSTQDTVVALHALSKYGAATFTRTGKAAQVTIQSSGTFSSKFQVDNNNRLLLQQVSLPELPGEYSMKVTGEGCVYLQTSLKYNILPEKEEFPFALGVQTLPQTCDEPKAHTSFQISLSVSYTGSRSASNMAIVDVKMVSGFIPLKPTVKMLERSNHVSRTEVSSNHVLIYLDKVSNQTLSLFFTVLQDVPVRDLKPAIVKVYDYYETDEFAIAEYNAPCSKDLGNA
notes: alpha 2-macroglobulin (α2M), cDNA amplified from HepG2 total cDNA; Tetramer with an intact thiol ester by native-PAGE and heat fragmentation; also called α2M–RG; α2M–RFP–GFP–His; source: purified from conditioned medium (Ni–NTA); not shown: mCherry, C-terminal, kept; sfGFP, C-terminal, kept

Legend:
α2M–mCherry–sfGFP–His = biological target: B1; experiment: co-IP; purified α2M–RG (0.1 μM) mixed with purified substrate, pre-incubated at 50 °C (heat stress) or 4 °C for 1 h; anti-GFP (GFP-nanobody) sepharose 2 h at 4 °C, washed four times with PBS; settings: both partners purified
[1] = biological target: the molecule itself; experiment: native gel or EMSA; Native-PAGE of purified α2M–RG on NuPAGE 3 to 8% Tris–acetate gels, Tris–glycine running buffer pH 8.3, with or without methylamine; migrated to ~920 kDa

Binder | binding result (α2M–mCherry–sfGFP–His) | stoichiometry N [1]
His–ALFA–3C–ALDH1A1 (natural protein, human, UniProt P00352 1-501, looked up, retinal dehydrogenase 1 (ALDH1A1), cDNA amplified from HEK293 total cDNA; A 3C protease site stands between the tags and the protein; Heat-stressed at 50 °C for 1 h together with the chaperone; also called recombinant ALDH1A1; source: E. coli BL21(DE3) LOBSTR, purified (HisPur Cobalt Resin)) MSSSGTPDLPVLLTDLKIQYTKIFINNEWHDSVSGKKFPVFNPATEEELCQVEEGDKEDVDKAVKAARQAFQIGSPWRTMDASERGRLLYKLADLIERDRLLLATMESMNGGKLYSNAYLNDLAGCIKTLRYCAGWADKIQGRTIPIDGNFFTYTRHEPIGVCGQIIPWNFPLVMLIWKIGPALSCGNTVVVKPAEQTPLTALHVASLIKEAGFPPGVVNIVPGYGPTAGAAISSHMDIDKVAFTGSTEVGKLIKEAAGKSNLKRVTLELGGKSPCIVLADADLDNAVEFAHHGVFYHQGQCCIAASRIFVEESIYDEFVRRSVERAKKYILGNPLTPGVTQGPQIDKEQYDKILDLIESGKKEGAKLECGGGPWGNKGYFVQPTVFSNVTDEMRIAKEEIFGPVQQIMKFKSLDDVIKRANNTFYGLSAGVFTKDIDKAITISSALQAGTVWVNCYGVVSAQCPFGGFKMSGNGRELGEYGFHEYTEVKTVTVKISQKNS | binds | 
B1 |  | 4
His–ALFA–3C–ESD (natural protein, human, UniProt P10768 1-282, looked up, S-formylglutathione hydrolase (ESD), cDNA amplified from HEK293 total cDNA; A 3C protease site stands between the tags and the protein; Heat-stressed at 50 °C for 1 h together with the chaperone; also called recombinant ESD; source: E. coli BL21(DE3) LOBSTR, purified (HisPur Cobalt Resin)) MALKQISSNKCFGGLQKVFEHDSVELNCKMKFAVYLPPKAETGKCPALYWLSGLTCTEQNFISKSGYHQSASEHGLVVIAPDTSPRGCNIKGEDESWDFGTGAGFYVDATEDPWKTNYRMYSYVTEELPQLINANFPVDPQRMSIFGHSMGGHGALICALKNPGKYKSVSAFAPICNPVLCPWGKKAFSGYLGTDQSKWKAYDATHLVKSYPGSQLDILIDQGKDDQFLLDGQLLPDNFIAACTEKKIPVVFRLQEGYDHSYYFIATFITDHIRHHAKYLNA | binds | 
